Measurements reported in FireProtDB (doi:10.1110/ps.062595707).
Where “and” joins values, the source holds several entries; their conditions need not be identical. Equal entries are not always repeated.

B1: Ribose import binding protein RbsB, P02925 (parent)
chain: MNMKKLATLVSAVALSATVSANAMAKDTIALVVSTLNNPFFVSLKDGAQKEADKLGYNLVVLDSQNNPAKELANVQDLTVRGTKILLINPTDSDAVGNAVKMANQANIPVITLDRQATKGEVVSHIASDNVLGGKIAGDYIAKKAGEGAKVIELQGIAGTSAARERGEGFQQAVAAHKFNVLASQPADFDRIKGLNVMQNLLTAHPDVQAVFAQNDEMALGALRALQTAGKSDVMVVGFDGTPDGEKAVNDGKLAATIAQLPDQIGAKGVETADKVLKGEKVQAKYPVDLKLVVKQ

Variants of: B1
Details: Escherichia coli (strain K12); pH 7; Thermal; CD; Phosphate 5 mM; structure 2DRI; whole UniProt chain shown

| Variant | Tm | change of melting temperature, mutant - wild type (higher = more stable) |
| --- | --- | --- |
| MNMKKLATLVSAVALSATVSANAMAKDTIALVVATLNAPFFVSLKDGAQKEADKLGYNLVVLDSQNNPAKELANVQDLTVRGTKILLINPTDSDAVGNAVKMANQANIPVITLDRQATKGEVVSHIAADNVLGGKIAGDYIAKKAGEGAKVIELQGAAGTSAARERGEGFQQAVAAHKFNVLASQPADFDRIKGLNVMQNLLTAHPDVQAVFAQNDEMALGALRALQTAGKSDVMVVGFDGTPDGEKAVNDGKLAATIAALPDQIGAKGVETADKVLKGEKVQAKYPVDLKLVVKQ [S34A I157A S128A N38A Q260A] | 59 °C | -4.7 °C |
| MNMKKLATLVSAVALSATVSANAMAKDTIALVVATLNAPFFVSLKDGAQKEADKLGYNLVVLDSQNNPAKELANVQDLTVRGTKILLINPTDSDAVGNAVKMANQANIPVITLDRQATKGEVVSHIAADNVLGGKIAGDYIAKKAGEGAKVIELQGAAGTSAARERGEGFQQAVAAHKFNVLASQPADFDRIKGLNVMQNLLTAHPDVQAVFAQNDEMALGALRALQTAGKSDVMVVGFDGTPDGEKAVNDGKLAATIAQLPDQIGAKGVETADKVLKGEKVQAKYPVDLKLVVKQ [S34A I157A S128A N38A] | 54.7 °C | -9 °C |
| MNMKKLATLVSAVALSATVSANAMAKDTIALVVSTLNNPFFVSLKDGAQKEADKLGYNLVVLDSQNNPAKELANVQDLTVRGTKILLIAPTDSDAVGNAVKMANQANIPVITLDRQATKGEVVSHIASDNVLGGKIAGDYIAKKAGEGAKVIELQGIAGTSAARERGEGFQQAVAAHKFNVLASQPADFDRIKGLNVMQNLLTAHPDVQAVFAQNDEMALGALRALQTAGKSDVMVVGFDGTPDGEKAVNDGKLAATIAQLPDQIGAKGVETADKVLKGEKVQAKYPVDLKLVVKQ [N89A] | 52.9 °C | -4.6 °C |
| MNMKKLATLVSAVALSATVSANAMAKDTIALVVSTLNNPFFVSLKDGAQKEADKLGYNLVVLDSQNNPAKELANVQDLTVRGTKILLINPTDSDAVGNAVKMANQANIPVITLDRQATKGEVVSHIAADNVLGGKIAGDYIAKKAGEGAKVIELQGIAGTSAARERGEGFQQAVAAHKFNVLASQPADFDRIKGLNVMQNLLTAHPDVQAVFAQNDEMALGALRALQTAGKSDVMVVGFDGTPDGEKAVNDGKLAATIAQLPDQIGAKGVETADKVLKGEKVQAKYPVDLKLVVKQ [S128A] | 57.8 °C and 60.7 °C | 0.3 °C and -3 °C |
| MNMKKLATLVSAVALSATVSANAMAKDTIALVVSTLNAPFFVSLKDGAQKEADKLGYNLVVLDSQNNPAKELANVQDLTVRGTKILLINPTDSDAVGNAVKMANQANIPVITLDRQATKGEVVSHIASDNVLGGKIAGDYIAKKAGEGAKVIELQGIAGTSAARERGEGFQQAVAAHKFNVLASQPADFDRIKGLNVMQNLLTAHPDVQAVFAQNDEMALGALRALQTAGKSDVMVVGFDGTPDGEKAVNDGKLAATIAQLPDQIGAKGVETADKVLKGEKVQAKYPVDLKLVVKQ [N38A] | 58.2 °C and 60.1 °C | 0.7 °C and -3.6 °C |
| MNMKKLATLVSAVALSATVSANAMAKDTIALVVSTLNNPFAVSLKDGAQKEADKLGYNLVVLDSQNNPAKELANVQDLTVRGTKILLINPTDSDAVGNAVKMANQANIPVITLDRQATKGEVVSHIASDNVLGGKIAGDYIAKKAGEGAKVIELQGIAGTSAARERGEGFQQAVAAHKFNVLASQPADFDRIKGLNVMQNLLTAHPDVQAVFAQNDEMALGALRALQTAGKSDVMVVGFDGTPDGEKAVNDGKLAATIAQLPDQIGAKGVETADKVLKGEKVQAKYPVDLKLVVKQ [F41A] | 58.9 °C and 57.4 °C | – |
| MNMKKLATLVSAVALSATVSANAMAKDTIALVVSTLNNPFFVSLKDGAQKEADKLGYNLVVLDSQNNPAKELANVQDLTVRGTKILLINPTDSDAVGNAVKMANQANIPVITLDRQATKGEVVSHIASDNVLGGKIAGDYIAKKAGEGAKVIELQGAAGTSAARERGEGFQQAVAAHKFNVLASQPADFDRIKGLNVMQNLLTAHPDVQAVFAQNDEMALGALRALQTAGKSDVMVVGFDGTPDGEKAVNDGKLAATIAQLPDQIGAKGVETADKVLKGEKVQAKYPVDLKLVVKQ [I157A] | 57.3 °C and 61.2 °C | -0.2 °C and -2.5 °C |
| MNMKKLATLVSAVALSATVSANAMAKDTIALVVATLNNPFFVSLKDGAQKEADKLGYNLVVLDSQNNPAKELANVQDLTVRGTKILLINPTDSDAVGNAVKMANQANIPVITLDRQATKGEVVSHIAADNVLGGKIAGDYIAKKAGEGAKVIELQGAAGTSAARERGEGFQQAVAAHKFNVLASQPADFDRIKGLNVMQNLLTAHPDVQAVFAQNDEMALGALRALQTAGKSDVMVVGFDGTPDGEKAVNDGKLAATIAQLPDQIGAKGVETADKVLKGEKVQAKYPVDLKLVVKQ [S34A I157A S128A] | 53.4 °C and 53.7 °C | – |
| MNMKKLATLVSAVALSATVSANAMAKDTIALVVSTLNNPFFVSLKDGAQKEADKLGYNLVVLDSQNNPAKELANVQDLTVRGTKILLINPTDSDAVGNAVKMANQANIPVITLARQATKGEVVSHIASDNVLGGKIAGDYIAKKAGEGAKVIELQGIAGTSAARERGEGFQQAVAAHKFNVLASQPADFDRIKGLNVMQNLLTAHPDVQAVFAQNDEMALGALRALQTAGKSDVMVVGFDGTPDGEKAVNDGKLAATIAQLPDQIGAKGVETADKVLKGEKVQAKYPVDLKLVVKQ [D114A] | 58.2 °C and 57.2 °C | – |
| MNMKKLATLVSAVALSATVSANAMAKDTIALVVSTLNNPAFVSLKDGAQKEADKLGYNLVVLDSQNNPAKELANVQDLTVRGTKILLINPTDSDAVGNAVKMANQANIPVITLDRQATKGEVVSHIASDNVLGGKIAGDYIAKKAGEGAKVIELQGIAGTSAARERGEGFQQAVAAHKFNVLASQPADFDRIKGLNVMQNLLTAHPDVQAVFAQNDEMALGALRALQTAGKSDVMVVGFDGTPDGEKAVNDGKLAATIAQLPDQIGAKGVETADKVLKGEKVQAKYPVDLKLVVKQ [F40A] | 52.5 °C and 54.2 °C | -5 °C and -9.5 °C |
